For 167 variants, abundance fitness results are on record in the Human Domainome abundance scans (Beltran et al. 2025).

± gives the uncertainty stated by the source.

The chains are these.
B1: Membrane-associated guanylate kinase, WW and PDZ domain-containing protein 2, residues 601 to 682; numbered along this chain, Q86UL8 (parent)
chain: AELMTLTIVKGAQGFGFTIADSPTGQRVKQILDIQGCPGLCEGDLIVEINQQNVQNLSHTEVVDILKDCPIGSETSLIIHRG

The series covers variants of B1. Kind of series: abundance fitness (aPCA) (normalised: wild type 0, dead -1); higher = more abundant; growth selection in yeast, the domain comes from the species named. The conditions noted are these: Homo sapiens.
On to G39L, for which the abundance fitness is -0.22 ± 0.14.
Consider G39R, for which the abundance fitness was -0.167 ± 0.16.
The same measure for G39N: -0.043 ± 0.24; for G39E: -0.255 ± 0.14.
With C41H, the abundance fitness turned out to be 0.144 ± 0.084.
Take C41E: the abundance fitness is 0.01 ± 0.044.
For the variant C41L, the abundance fitness is -0.005 ± 0.037.
As for C41P, the abundance fitness was -1.02 ± 0.16.
The same measure for C41K: -0.036 ± 0.056.
For C41R, the abundance fitness was -0.022 ± 0.029.
In the case of C41S, the abundance fitness amounted to 0.027 ± 0.038.
C41T: the abundance fitness is 0.046 ± 0.048.
For the variant C41N, the abundance fitness was -0.012 ± 0.081.
To C41D belongs 0.036 ± 0.066; to C41Q, -0.001 ± 0.061; to C41A, 0.042 ± 0.04.
With C41F, the abundance fitness was 0.016 ± 0.088.
Regarding C41W, the abundance fitness was -0.058 ± 0.039.
To C41I belongs 0.057 ± 0.062; to C41G, -0.046 ± 0.03.
For the variant C41M, the abundance fitness was -0.04 ± 0.05.
The same measure for E42N: -0.087 ± 0.11.
With E42H, the abundance fitness is -0.23 ± 0.2.
As for E42G, the abundance fitness was -0.114 ± 0.052.
To E42S belongs -0.049 ± 0.057; to E42V, -0.062 ± 0.05; to E42K, -0.016 ± 0.069.
On to E42T, for which the abundance fitness was -0.015 ± 0.061.
Turning to E42R, the abundance fitness was -0.1 ± 0.052.
Consider E42F, for which the abundance fitness is -0.123 ± 0.1.
Take E42L: the abundance fitness was -0.028 ± 0.05.
With E42D, the abundance fitness is -0.152 ± 0.076.
Turning to E42W, the abundance fitness was -0.171 ± 0.064.
Turning to E42C, the abundance fitness is -0.123 ± 0.064.
For E42I, the abundance fitness was -0.087 ± 0.089.
In the case of E42M, the abundance fitness worked out at 0.036 ± 0.063.
The same measure for E42P: 0.061 ± 0.075.
As for D44N, the abundance fitness was -0.21 ± 0.1.
For the variant D44Y, the abundance fitness was -0.71 ± 0.2.
As to D44Q, the abundance fitness was -0.567 ± 0.16.
As to D44E, the abundance fitness is -0.874 ± 0.22.
For the variant D44A, the abundance fitness was -0.263 ± 0.11.
Consider D44T, for which the abundance fitness was -0.95 ± 0.26.
As to D44C, the abundance fitness is -0.989 ± 0.28.
The same measure for D44L: -1.27 ± 0.3.
For D44H, the abundance fitness is -0.79 ± 0.31.
As to D44G, the abundance fitness was -0.859 ± 0.11.
Consider D44M, for which the abundance fitness was -0.572 ± 0.24.
For D44S, the abundance fitness is -0.618 ± 0.12.
In the case of N50S, the abundance fitness is -0.03 ± 0.068.
To N50F belongs -0.71 ± 0.48.
Consider N50L, for which the abundance fitness is -0.219 ± 0.1.
As for N50Y, the abundance fitness is -0.386 ± 0.27.
N50K: the abundance fitness is -0.011 ± 0.12.
To N50E belongs 0.013 ± 0.16; to N50H, 0.024 ± 0.13.
Take N50C: the abundance fitness is -0.71 ± 0.43.
As for N50W, the abundance fitness is -0.433 ± 0.15.
To N50V belongs -0.626 ± 0.17; to N50G, -0.058 ± 0.064.
Regarding N50T, the abundance fitness was -0.455 ± 0.15.
For the variant N50R, the abundance fitness is -0.068 ± 0.057.
On to N50M, for which the abundance fitness was -0.108 ± 0.1.
As for N50D, the abundance fitness was -0.084 ± 0.23.
For the variant L40G, the abundance fitness was -0.752 ± 0.13.
Consider L40P, for which the abundance fitness was -0.232 ± 0.09.
To L40V belongs -0.061 ± 0.081; to L40M, -0.254 ± 0.17.
With L40T, the abundance fitness is -0.498 ± 0.097.
Regarding L40S, the abundance fitness is -0.616 ± 0.21.
To L40F belongs 0.047 ± 0.25.
As for L40A, the abundance fitness was -0.108 ± 0.17.
The same measure for I31C: -0.185 ± 0.093; for I31Q: -0.091 ± 0.22.
In the case of I31N, the abundance fitness is -0.219 ± 0.21.
Consider I31V, for which the abundance fitness was -0.035 ± 0.084.
The same measure for I31S: -0.251 ± 0.079; for I31T: -0.097 ± 0.089; for I31H: -0.316 ± 0.31.
On to I31M, for which the abundance fitness was -0.084 ± 0.12.
For I31P, the abundance fitness is -0.181 ± 0.28.
As to I31R, the abundance fitness was -0.283 ± 0.081.
Regarding I31G, the abundance fitness was -0.11 ± 0.084.
For I31Y, the abundance fitness is -0.221 ± 0.14.
To I31W belongs -0.665 ± 0.15; to I31K, 0.197 ± 0.41.
In the case of I31A, the abundance fitness is -0.101 ± 0.31.
With I31L, the abundance fitness came to 0.011 ± 0.083.
For Q35V, the abundance fitness is -0.064 ± 0.17.
On to Q35K, for which the abundance fitness is -0.278 ± 0.24.
For the variant Q35Y, the abundance fitness is -0.066 ± 0.24.
To Q35G belongs 0.052 ± 0.11.
As for Q35L, the abundance fitness is -0.115 ± 0.094.
Q35H: the abundance fitness is 0.08 ± 0.29.
As to Q35S, the abundance fitness was -0.005 ± 0.13.
To Q35R belongs 0.021 ± 0.12; to Q35T, 0.209 ± 0.35.
Turning to Q35A, the abundance fitness came to 0.086 ± 0.15.
As to Q35P, the abundance fitness is -0.243 ± 0.16.
Take I34T: the abundance fitness was -0.072 ± 0.067.
I34D: the abundance fitness was -0.036 ± 0.08.
Take I34N: the abundance fitness was 0.034 ± 0.13.
Consider I34R, for which the abundance fitness is -0.092 ± 0.043.
On to I34H, for which the abundance fitness is -0.153 ± 0.092.
In the case of I34V, the abundance fitness is 0.017 ± 0.059.
Take I34W: the abundance fitness is -0.101 ± 0.063.
On to I34M, for which the abundance fitness is -0.061 ± 0.066.
To I34A belongs -0.026 ± 0.053; to I34L, 0.007 ± 0.064.
Regarding I34F, the abundance fitness was -0.066 ± 0.17.
In the case of I34Y, the abundance fitness was determined as 0.013 ± 0.093.
For I34Q, the abundance fitness was -0.031 ± 0.081.
The same measure for I34G: -0.021 ± 0.05; for I34C: -0.076 ± 0.086.
The same measure for I34K: -0.007 ± 0.076; for I34E: -0.045 ± 0.07.
As to I34S, the abundance fitness was -0.017 ± 0.063.
I34P: the abundance fitness is -0.072 ± 0.068.
The same measure for V47R: -0.018 ± 0.073.
On to V47F, for which the abundance fitness turned out to be 0.185 ± 0.38.
Turning to V47G, the abundance fitness was -0.164 ± 0.063.
As to V47N, the abundance fitness was -0.291 ± 0.39.
In the case of V47Y, the abundance fitness is -0.337 ± 0.18.
The same measure for V47W: -0.09 ± 0.11.
To V47A belongs 0.036 ± 0.082; to V47S, -0.09 ± 0.069; to V47C, -0.066 ± 0.09.
The same measure for V47K: -0.195 ± 0.16; for V47D: -0.161 ± 0.33.
For V47E, the abundance fitness was determined as 0.004 ± 0.12.
To V47Q belongs 0.033 ± 0.26; to V47I, -0.165 ± 0.11.
Take L45G: the abundance fitness was -0.096 ± 0.34.
With L45R, the abundance fitness is -0.244 ± 0.32.
The same measure for L45S: 0.256 ± 0.26.
The same measure for L45W: -0.161 ± 0.15; for L45M: 0.089 ± 0.17.
The same measure for L45V: -0.232 ± 0.12; for L45A: -0.088 ± 0.43.
Turning to K29A, the abundance fitness is -0.095 ± 0.1.
On to K29I, for which the abundance fitness was -0.395 ± 0.29.
To K29R belongs -0.047 ± 0.062; to K29V, -0.122 ± 0.086.
Take K29H: the abundance fitness turned out to be 0.181 ± 0.33.
As for K29Q, the abundance fitness is -0.053 ± 0.13.
For K29E, the abundance fitness stood at 0.084 ± 0.15.
Turning to K29L, the abundance fitness is -0.212 ± 0.099.
On to K29G, for which the abundance fitness was -0.004 ± 0.087.
In the case of K29C, the abundance fitness is -0.091 ± 0.13.
Consider K29S, for which the abundance fitness worked out at 0.039 ± 0.2.
Take K29D: the abundance fitness was determined as 0.108 ± 0.28.
As to L32A, the abundance fitness is -0.218 ± 0.27.
As to L32V, the abundance fitness was determined as 0.052 ± 0.12.
To L32R belongs -0.069 ± 0.082; to L32W, -0.158 ± 0.22; to L32Y, -0.16 ± 0.3.
As to L32T, the abundance fitness was -0.023 ± 0.12.
On to L32K, for which the abundance fitness was -0.295 ± 0.12.
The same measure for L32Q: -0.212 ± 0.25.
For L32I, the abundance fitness is -0.057 ± 0.13.
For the variant L32G, the abundance fitness came to 0.021 ± 0.059.
For the variant L32N, the abundance fitness was -0.124 ± 0.29.
For the variant L32D, the abundance fitness was 0.022 ± 0.16.
With L32M, the abundance fitness is 0.035 ± 0.24.
The same measure for L32S: 0.024 ± 0.09; for L32C: -0.197 ± 0.18.
Regarding L32P, the abundance fitness was -0.119 ± 0.13.
